This is an account of results in US20260234247A1 (published 2026).

Sequences and labels used below:
B1: LK-RB1-2 (antibody, human IgG4 S228P, kappa, V domains shown)
VH: QIQLVQSGPELKKPGETVKISCKASGYTFTTYGVSWVKQAPGKGLKWMGWINTYSGVSTYSDDFKGRFAFSLETSASTAYLQIINLKNEDAATYFCSRRRRTYDGYLSFDYWGQGTTLTVSS
VL: DIQMTQSPGSLSASVGETVTITCGASENIYGALNWFQRKPGKSPQLLIYGATNLADGMSSRFSGSGSGRQYSLQISSLRPDDVATYYCQNVLTTPWTFGGGTKVEIKR
B2: LK-RB1-4 (antibody, human IgG4 S228P, kappa, V domains shown)
VH: QVQLQQPGAELVKPGASVKLPCKTSGYTFTSYWMHWVKQRPGRGLEWIGRIDPHYSGTKYNEKFKNKATMTVDTPSSTAYMQLSSLTSEDSAVYYCARFDGDPYYFDYWGPGTTLTVSS
VL: DIVMTQSQKFMSTSVGDRVSVTCKASQNVGTNVAWYKQKAGQSPKAVIYSASYRYSGVPDRFTGSGSGTDFTLSISNVQSEDLAEYFCQQYNNNPFTFGSGTKLEIKR
B3: LK-RB1-3 (antibody, human IgG4 S228P, kappa, V domains shown)
VH: QVQLQQPGAELVKPGTSVNLSCKASGYTFTSYWIHWVKQRPGRGLEWIGRINPYSSGTRYNEKFKNKATLTVDKPSSTAYMQLTSLTSEDSAVYYCARFDGAPDYFDFWGQGTTLTVSS
VL: DIVMTQSQKFMPTSVGDRVNVTCKASQNVGINVAWYQQKLGQSPKALIYSASYRYSGVPDRFTGSGSGTDFTLTINSVQSEDLADYFCQQYNNYPFTFGSGTKLEIKR
B4: LK-RB1-6 (antibody, human IgG4 S228P, kappa, V domains shown)
VH: QIQLVQSGPELKKPGETVKISCKASGYTFTTYGMSWVKQAPGKDLKWMGWINTFSGVPACADDFQGRFDFSAEPSDSTAHLQINNLKNEDTATYFCARRSYYGSRGWYFDVWGTGTTVTVSS
VL: DIVMTQSHKFMSTSVGDRVSITCTASEDVNTAVAWYQQKPGQSPKLLIYWASTRHTGVPDRFTGSGSGTDYTLTISSVQTEDLALYYCQQHYNTPYTFGGGTKLEIKR
B5: LK-RB1-39 (antibody, human IgG4 S228P, kappa, V domains shown)
VH: EVQLQQSGAELVRPGASVKLSCTASGFNIKDDYVHWVNQRPEQGLEWIGWIDPENGDTGYASKFQDKATITADTSSNTAYLHLSSLTSEDTAVYYCTTTRWTGSYWGQGTTLTVSS
VL: QIVLTQSPAIMSASPGEKVTITCSASSSVNYMHWFQQKPGSSPKLWIYSTANLASGVPARFSGSGSGTSYSLTISRMEAEDAATYYCQQRSSYPPTWTFGGGTKLEIKR
B6: LK-RB1-55 (antibody, human IgG4 S228P, kappa, V domains shown)
VH: EVKLVESGGGLVQPGGSLKLSCAASGFTFSDYYMYWVRQTPEKRLEWVAYISNGGDITFYPDTVKGRFTISRDNARSTLYLQMSRLKSEDTAIYYCASATTEVGAMDHWGQGTSVTVSS
VL: DIVMTQSQKFMSTTVGDRVSITCKASQNVGTAVAWYQQKPGKSPKLLIYAASNRYTGVPDRFTGSGSGTDFTLTISNMQSEDLADYFCQQYSSYRTFGGGTNLEIKR
B7: LK-RB1-48 (antibody, human IgG4 S228P, kappa, V domains shown)
VH: B6 VH with D56G, T58S, R76K, S77N, T101K, H108Y
VL: B6 VL with M11L, K42Q, L46I, A50S, N102K
B8: LK-RB1-52 (antibody, human IgG4 S228P, kappa, V domains shown)
VH: B6 VH with T28I, F59Y, N74I, S77N, Y80F, S84G, I93M
VL: B6 VL with K42Q, S92R
B9: LK-RB1-57 (antibody, human IgG4 S228P, kappa, V domains shown)
VH: B6 VH with M83T
VL: B6 VL with M78V, N102S
B10: LK-RB1-53 (antibody, human IgG4 S228P, kappa)
heavy: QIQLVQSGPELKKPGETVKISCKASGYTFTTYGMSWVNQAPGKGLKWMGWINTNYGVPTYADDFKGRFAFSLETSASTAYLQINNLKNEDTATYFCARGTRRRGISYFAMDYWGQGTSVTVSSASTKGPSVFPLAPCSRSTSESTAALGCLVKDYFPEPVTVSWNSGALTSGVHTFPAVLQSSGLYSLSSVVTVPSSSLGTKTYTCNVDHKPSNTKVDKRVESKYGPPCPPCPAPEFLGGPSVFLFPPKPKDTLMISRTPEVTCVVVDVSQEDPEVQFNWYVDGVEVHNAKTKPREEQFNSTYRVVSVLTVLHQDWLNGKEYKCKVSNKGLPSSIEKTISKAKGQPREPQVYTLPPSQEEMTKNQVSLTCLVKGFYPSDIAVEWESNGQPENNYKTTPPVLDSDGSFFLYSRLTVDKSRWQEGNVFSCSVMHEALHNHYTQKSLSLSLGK
light: DIVMTQSQKFMSTTVGDRVSITCKASQNVGTAVAWYQQKPGQSPKLLIYSASNRYTGVPDRFTGSDSGTDFTLTINNIQSEDLADYFCQQYSSYPLTFATGTKLELKRTVAAPSVFIFPPSDEQLKSGTASVVCLLNNFYPREAKVQWKVDNALQSGNSQESVTEQDSKDSTYSLSSTLTLSKADYEKHKVYACEVTHQGLSSPVTKSFNRGEC
B11: LK-RB1-42 (antibody, human IgG4 S228P, kappa, V domains shown)
VH: QVQLQQPGAELVKPGTSVKLSCKASGYSFISYWVYWVKQRPGQGLEWIGMIHPNSGSTNFNEKFRYKATLTVDKSSSTAYIQLSSLTSEDSAVYYCGRSDDGYPYHAMDSWGQGTSVTVSS
VL: DIVMTQSQKFMSTSVGDRVSVTCKASQNVGTNVAWYQQKPGQSPKALIYSASYRFSGVPDRFTGSGSGTDFTLTIGNVQSEDLAEYFCHQYKNYPLTFGGGTKLEIKR
B12: LK-RB1-47 (antibody, human IgG4 S228P, kappa, V domains shown)
VH: QIQLVQSGPELKKPGETVKISCKASGYTFTTYGMSWVKQAPGKGLKWMGWINTYSGVPTYTDDFKGRFAFSVETSASTAYLQINNLKNEDTATYFCARRERDFYGNIFFPYWGQGSLVTVSA
VL: DIQMTQTTSSLSASLGDRVTISCRASQDISNYLNWYQQKPDGTVKLLIYYTSRIHSGVPSRFSGSGSGTDFSLTISNLDQEDIATYFCQQGHTLPWTFGGGTKVEIKR
B13: LK-RB1-49 (antibody, human IgG4 S228P, kappa, V domains shown)
VH: QIQLVQSGPELKKPGETVKISCKASGYTFTTYGMSWVKQAPGKGLKWMGWINTYSGVPTYADDFKGRFAFSLETSGSTAYLQISNLKNEDTATYFCSRLFRSWDSYAMDYWGQGTSVTVSS
VL: DIVMTQSQKFMSATVGDRVSITCKASQNVGTAVAWYQQKPGQSPKLLIYSPSNRYTGVPDRFTGSGSGTHFTLTINNMQSEDLADYFCQQYSTYPLTFGAGTKLELNR
B14: LK-RB1-34 (antibody, human IgG4 S228P, kappa, V domains shown)
VH: QVQLQQSGAELVKPGASVKLSCKASGYTFTEYTIHWVKQRSGQGLEWIGWFYPGSDSIKYNEKFKDKATLTADKSSSTVYMELSRLTSEDSAVYFCSRHEGPYFTSQYYFDYWGQGTTLTVSS
VL: DILLTQSPAILSVSPGERVSFSCRASRYIGTSIHWYQQRTNGSPRLLIKYASESISGIPSRFSGSGSGTDFTLSINSVESEDIADYYCQQSNTWPLTFGAGTKLELKR

Residue numbers refer to the chain shown, from its start.

T2 sequence (Q8NHL6 24-650): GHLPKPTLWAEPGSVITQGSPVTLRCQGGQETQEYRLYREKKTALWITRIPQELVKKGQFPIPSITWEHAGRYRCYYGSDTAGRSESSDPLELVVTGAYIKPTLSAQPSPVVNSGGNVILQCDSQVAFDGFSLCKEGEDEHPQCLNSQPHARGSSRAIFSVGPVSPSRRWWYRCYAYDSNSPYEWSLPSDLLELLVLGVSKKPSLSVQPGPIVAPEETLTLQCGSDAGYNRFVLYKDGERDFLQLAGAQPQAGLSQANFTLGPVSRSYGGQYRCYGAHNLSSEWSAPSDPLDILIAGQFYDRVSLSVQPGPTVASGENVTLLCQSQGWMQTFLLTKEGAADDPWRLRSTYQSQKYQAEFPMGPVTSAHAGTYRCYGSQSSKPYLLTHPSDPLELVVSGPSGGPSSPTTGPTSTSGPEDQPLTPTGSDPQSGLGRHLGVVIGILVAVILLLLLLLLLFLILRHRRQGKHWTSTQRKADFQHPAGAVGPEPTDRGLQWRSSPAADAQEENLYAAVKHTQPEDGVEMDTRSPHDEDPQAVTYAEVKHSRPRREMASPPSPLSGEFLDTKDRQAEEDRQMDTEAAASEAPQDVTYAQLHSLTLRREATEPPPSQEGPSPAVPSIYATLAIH

One assay deals with T1, human LILRB1 (human, UniProt Q8NHL6 24-458, limits assumed).
T1 construct: also called hLILRB1
T1 sequence (Q8NHL6 24-458 limits assumed): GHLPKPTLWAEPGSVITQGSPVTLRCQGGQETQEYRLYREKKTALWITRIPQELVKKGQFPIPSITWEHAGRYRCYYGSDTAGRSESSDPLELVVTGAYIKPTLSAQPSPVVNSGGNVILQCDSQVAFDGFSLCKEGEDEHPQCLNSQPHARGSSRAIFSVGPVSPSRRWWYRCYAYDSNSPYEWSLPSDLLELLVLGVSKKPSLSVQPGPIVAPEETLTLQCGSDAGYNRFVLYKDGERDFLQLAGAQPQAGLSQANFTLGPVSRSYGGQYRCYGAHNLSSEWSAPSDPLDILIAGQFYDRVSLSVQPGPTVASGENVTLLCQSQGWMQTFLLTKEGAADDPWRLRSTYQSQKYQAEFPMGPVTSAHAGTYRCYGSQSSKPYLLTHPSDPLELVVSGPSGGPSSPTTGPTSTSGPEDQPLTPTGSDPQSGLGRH
Description: Octet off-rate ranking.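 Note: antibody dissociation rate constants against cynomolgus LILRB2 plus human LILRB1, LILRB2, LILRA1 and LILRA2, measured on an Octet instrument to rank binding.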 A general note: In BLI a coated tip is dipped into the sample, and binding shifts an interference pattern.
Description: Binding affinity of anti-LILRB1 and anti-LILRB2 antibodies against human LILRB1, LILRB2, LILRA1, LILRA2 and cynomolgus LILRB2 was ranked by measuring dissociation rate constant (Kdis) using the Octet system.
What is called koff is the rate constant with which the complex falls apart. Read a high koff as a short-lived complex. On to B1, for which the koff amounted to 0.000118 s⁻¹.
As to B2, the koff was determined as 2.79e-05 s⁻¹.
Consider B3, for which the off-rate (koff) amounted to 5.24e-05 s⁻¹.
B4 came in with a koff of 0.00059 s⁻¹.

A further assay concerns the target T2, human LILRB1 on CHOK1 cells (human, UniProt Q8NHL6 24-650).
T2 construct: whole, on cells; also called CHOK1-hLILRB1; CHOK1-LILRB1
Put plainly: FACS binding, CHOK1-hLILRB1 cells. On the technique in general: Flow cytometry measures light scatter and fluorescence of single cells or particles in a stream.
As a reminder, the EC50 is the concentration giving half of the maximal effect. A higher EC50 goes with lower potency in that assay. As to B5, the EC50 was determined as 0.77 nM. This lies in the sub-nanomolar range.
With B6, the half-maximal effective concentration (EC50) was found to be 1.68 nM. This EC50 is about 2.2-fold higher than that of the molecule before.
For B7, a half-maximal effect (EC50) was put at 1.06 nM. Against the preceding molecule, the EC50 is about 1.6-fold lower.
With B8, the concentration giving a half-maximal response (EC50) was 1.8 nM. This EC50 is about 1.7-fold higher than that of the molecule before.
Molecule B9 yielded a concentration giving a half-maximal response (EC50) of 1.78 nM. This EC50 and that of the molecule before are within 1.5-fold of each other.
As for B10, the response was half-maximal at 0.71 nM (EC50). This EC50 lies about 2.5-fold lower than the previous one.
Molecule B11 came in with an EC50 of 0.89 nM. This EC50 and that of the molecule before are within 1.5-fold of each other.
With B12, the 50% effective concentration (EC50) came out at 1.13 nM.
Molecule B13 displayed an EC50 of 2.05 nM.
Turning to B14, the response was half-maximal at 1.56 nM (EC50).

For a further assay, the target named is T3, human LILRB2 on CHOK1 cells (human, UniProt Q8N423 22-597).
T3 construct: whole, on cells; also called CHOK1-hLILRB2; CHOK1-LILRB2
T3 sequence (Q8N423 22-597): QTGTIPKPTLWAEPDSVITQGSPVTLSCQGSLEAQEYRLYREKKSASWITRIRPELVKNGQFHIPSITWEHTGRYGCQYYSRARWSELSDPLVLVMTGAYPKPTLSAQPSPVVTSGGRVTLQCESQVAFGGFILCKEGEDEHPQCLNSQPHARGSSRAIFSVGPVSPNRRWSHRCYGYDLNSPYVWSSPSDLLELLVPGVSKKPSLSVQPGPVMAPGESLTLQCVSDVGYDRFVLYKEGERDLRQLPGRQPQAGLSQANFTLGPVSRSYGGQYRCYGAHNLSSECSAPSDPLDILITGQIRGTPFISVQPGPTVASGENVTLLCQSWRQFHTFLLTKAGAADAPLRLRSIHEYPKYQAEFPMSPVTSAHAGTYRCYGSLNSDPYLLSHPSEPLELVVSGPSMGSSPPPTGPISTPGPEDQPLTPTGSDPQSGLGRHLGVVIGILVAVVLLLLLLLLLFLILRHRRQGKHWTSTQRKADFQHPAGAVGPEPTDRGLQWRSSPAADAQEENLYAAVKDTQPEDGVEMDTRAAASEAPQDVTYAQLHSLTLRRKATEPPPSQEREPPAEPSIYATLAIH
Put plainly: FACS binding, CHOK1-hLILRB2 cells.
B5: the EC50 is 0.17 nM.
As to B6, the binding result is recorded as “no binding”.
Still for that read-out and setting: then B7, with “no binding”.
For the molecule B8, the binding result was “no binding”.
With B9, the binding result is listed as “no binding”.
Take B10: the binding result is “no binding”.
On the same count and under the same terms, as for B11, the entry is “no binding”; as for B12, “no binding”; as for B13, “no binding”.
Consider B14, for which the binding result is “no binding”.

The next assay deals with T2, human LILRB1 on CHOK1 cells. Put plainly: cell-based RBA (FACS): blocking of HLA-G binding to CHOK1-hLILRB1 cells.
For B5, the EC50 is 0.68 nM and the “Top Inhibition (%)” value is 95.7%.
As for B6, the EC50 is 1.26 nM and the “Top Inhibition (%)” value was 92.6%.
Turning to B7, the response was half-maximal at 1 nM (EC50) and the “Top Inhibition (%)” value came to 86.7%.
As to B8, the midpoint of the response, the EC50, lay at 2.25 nM and the “Top Inhibition (%)” value turned out to be 89.7%.
For the molecule B9, the response was half-maximal at 1.67 nM (EC50) and the “Top Inhibition (%)” value was found to be 90%.
For the molecule B10, a half-maximal response (EC50) required 2.01 nM and the “Top Inhibition (%)” value came to 75.7%.
Take B11: a half-maximal response (EC50) required 4.5 nM and the “Top Inhibition (%)” value came out at 62.2%.
For B12, the EC50 is 1.59 nM and the “Top Inhibition (%)” value worked out at 99%.
Regarding B13, it took 2.32 nM to reach a half-maximal effect (EC50) and the “Top Inhibition (%)” value was determined as 91.4%.
With B14, the EC50 came to 3.69 nM and the “Top Inhibition (%)” value came to 21.7%.
